US20180282425A1
Like-named read-outs stand apart in the source and are kept apart here. Each block holds one substance with its values, some of them ahead of it.

Legend:
[1] = molecular target: C5a receptor C5aR (CD88) on human blood neutrophils (human) (UniProt P21730); test: cell-based or functional assay
[2] = molecular target: C5a receptor C5aR (CD88) on human blood neutrophils (human) (UniProt P21730); test: cell-based or functional assay; remark: listed apart in the source

Sequence of C5a receptor C5aR (CD88) on human blood neutrophils (human) (P21730 whole entry): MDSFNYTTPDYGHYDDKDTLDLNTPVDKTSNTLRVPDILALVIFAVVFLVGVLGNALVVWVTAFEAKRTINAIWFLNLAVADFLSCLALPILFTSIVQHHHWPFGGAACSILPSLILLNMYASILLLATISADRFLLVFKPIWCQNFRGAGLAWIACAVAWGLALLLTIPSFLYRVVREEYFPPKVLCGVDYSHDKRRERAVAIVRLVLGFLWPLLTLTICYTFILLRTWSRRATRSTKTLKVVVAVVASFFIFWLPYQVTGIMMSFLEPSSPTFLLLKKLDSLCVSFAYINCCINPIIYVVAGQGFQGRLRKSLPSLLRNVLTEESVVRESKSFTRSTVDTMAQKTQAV

Blocking activity (%) on CD11b upregulation; Pat. 088|PMX 53 (20 µM) [1]: 104%
Blocking activity (%) on CD11b upregulation; Pat. 092|PMX 53 (20 µM) [1]: 109%
Blocking activity (%) on CD11b upregulation; huPP|rhC5a|PMX 53 (20 µM) [1]: 108%
CD11b (mean MFI); Pat. 088|PMX 53 (20 µM) [1]: 2030 MFI
CD11b (mean MFI); Pat. 092|PMX 53 (20 µM) [1]: 1910 MFI
CD11b (mean MFI); huPP|rhC5a|PMX 53 (20 µM) [1]: 1850 MFI
Blocking activity (%) on CD11b upregulation; Pat. 088|PMX 53 (50 nM) [2]: 55.5%
Blocking activity (%) on CD11b upregulation; Pat. 092|PMX 53 (50 nM) [2]: 56.7%
Blocking activity (%) on CD11b upregulation; huPP|rhC5a|PMX 53 (50 nM) [2]: 50.3%
CD11b (mean MFI); Pat. 088|PMX 53 (50 nM) [2]: 4730 MFI
CD11b (mean MFI); Pat. 092|PMX 53 (50 nM) [2]: 4660 MFI
CD11b (mean MFI); huPP|rhC5a|PMX 53 (50 nM) [2]: 4240 MFI
Substance: PMX-53 (peptide)

Blocking activity (%) on CD11b upregulation; Pat. 088|Clone 7H110 (50 nM) [2]: 75.7%
Blocking activity (%) on CD11b upregulation; Pat. 092|Clone 7H110 (50 nM) [2]: 78.7%
Blocking activity (%) on CD11b upregulation; huPP|rhC5a|Clone 7H110 (50 nM) [2]: 70.7%
CD11b (mean MFI); Pat. 088|Clone 7H110 (50 nM) [2]: 3560 MFI
CD11b (mean MFI); Pat. 092|Clone 7H110 (50 nM) [2]: 3390 MFI
CD11b (mean MFI); huPP|rhC5a|Clone 7H110 (50 nM) [2]: 3380 MFI
Substance: anti-C5aR (CD88) antibody Clone 7H110

Blocking activity (%) on CD11b upregulation; Pat. 088|Clone S5/1 (50 nM) [2]: 72.7%
Blocking activity (%) on CD11b upregulation; Pat. 092|Clone S5/1 (50 nM) [2]: 75.9%
Blocking activity (%) on CD11b upregulation; huPP|rhC5a|Clone S5/1 (50 nM) [2]: 73%
CD11b (mean MFI); Pat. 088|Clone S5/1 (50 nM) [2]: 3740 MFI
CD11b (mean MFI); Pat. 092|Clone S5/1 (50 nM) [2]: 3560 MFI
CD11b (mean MFI); huPP|rhC5a|Clone S5/1 (50 nM) [2]: 3290 MFI
Substance: anti-C5aR (CD88) antibody Clone S5/1

CD11b (mean MFI) on blood neutrophils; huPP|rhC5a (20 nM), no blocker [1]: 8330 MFI
CD11b (mean MFI) on blood neutrophils; huPP|rhC5a (20 nM), no blocker [2]: 6330 MFI
Substance: recombinant human C5a (from UniProt P01031 678-751) (ligand)
